Data from publication PMC9636508, “Reciprocal interactions among Cobll1, PACSIN2, and SH3BP1 regulate drug resistance in chronic myeloid leukemia” (Cancer Medicine, 2022).

Key:
[1] = biological target: T1, Cobll1-NT-f (N-terminal region of Cobll1, residues 1-410) (UniProt Q53SF7 1-410); assay: SPR; PACSIN2 SH3 domain immobilised on a PEG chip by amine coupling (Reichert SR7500DC); 25°C; PBS (10 mM KH2PO4, 137 mM NaCl, 2.7 mM KCl, pH 7.4); 3 min association, 10 min dissociation; conditions: both partners purified
T1 construct: Cobll1 N-terminal region, residues 1-410, cloned into pGEX-4T-1; source: E. coli BL21-CodonPlus (DE3), purified (GST column, tag cleavage, ion exchange, Superdex)

[2] = biological target: T2, SH3BP1-CT (C-terminal region of SH3BP1, residues 541-701) (UniProt Q9Y3L3 541-701); assay: as above; conditions: both partners purified
T2 construct: SH3BP1 C-terminal region containing all proline-rich motifs, residues 541-701, cloned into pET-21a; also called SH3PB1-CT; source: E. coli BL21-CodonPlus (DE3), purified (Ni column, Superdex 75)
T2 sequence (looked up): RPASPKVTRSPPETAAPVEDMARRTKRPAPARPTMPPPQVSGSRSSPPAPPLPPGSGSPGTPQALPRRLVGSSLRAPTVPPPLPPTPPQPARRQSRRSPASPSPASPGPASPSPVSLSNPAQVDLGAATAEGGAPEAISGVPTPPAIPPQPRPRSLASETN

T1 sequence (Q53SF7 1-410): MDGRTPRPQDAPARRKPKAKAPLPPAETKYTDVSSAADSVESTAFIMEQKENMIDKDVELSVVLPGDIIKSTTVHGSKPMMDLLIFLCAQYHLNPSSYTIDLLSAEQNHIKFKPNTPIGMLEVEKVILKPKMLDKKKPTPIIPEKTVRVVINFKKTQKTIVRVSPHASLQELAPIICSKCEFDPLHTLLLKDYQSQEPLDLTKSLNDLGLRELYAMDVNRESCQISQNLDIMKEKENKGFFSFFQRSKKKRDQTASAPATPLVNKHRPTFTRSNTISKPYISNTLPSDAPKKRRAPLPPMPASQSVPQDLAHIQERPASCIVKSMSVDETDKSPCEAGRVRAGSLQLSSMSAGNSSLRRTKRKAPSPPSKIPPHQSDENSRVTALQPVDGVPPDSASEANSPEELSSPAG

Kd [1]: 0.0258 µM
Kd [2]: 2.2 µM
B1: PACSIN2 SH3 domain (residues 430-486), purified (domain or fragment)
chain: not shown
notes: 15N- or 15N,13C-labelled for NMR, unlabelled for SPR; source: E. coli BL21-CodonPlus (DE3), purified (GST column, tag cleavage, ion exchange, Superdex)
